B1: Mothers against decapentaplegic homolog 4 (Homo sapiens), Q13485 (parent)
chain: MDNMSITNTPTSNDACLSIVHSLMCHRQGGESETFAKRAIESLVKKLKEKKDELDSLITAITTNGAHPSKCVTIQRTLDGRLQVAGRKGFPHVIYARLWRWPDLHKNELKHVKYCQYAFDLKCDSVCVNPYHYERVVSPGIDLSGLTLQSNAPSSMMVKDEYVHDFEGQPSLSTEGHSIQTIQHPPSNRASTETYSTPALLAPSESNATSTANFPNIPVASTSQPASILGGSHSEGLLQIASGPQPGQQQNGFTGQPATYHHNSTTTWTGSRTAPYTPNLPHHQNGHLQHHPPMPPHPGHYWPVHNELAFQPPISNHPAPEYWCSIAYFEMDVQVGETFKVPSSCPIVTVDGYVDPSGGDRFCLGQLSNVHRTEAIERARLHIGKGVQLECKGEGDVWVRCLSDHAVFVQSYYLDREAGRAPGDAVHKIYPSAYIKVFDLRQCHRQMQQQAATAQAAAAAQAAAVAGNIPGPGSVGGIAPAISLSAAAGIGVDDLRRLCILRMSFVKGWGPDYPRQSIKETPCWIEIHLHRALQLLDEVLHTMPIADPQPLD
B2: Zinc finger protein Aiolos (Homo sapiens), Q9UKT9 (parent)
chain: MEDIQTNAELKSTQEQSVPAESAAVLNDYSLTKSHEMENVDSGEGPANEDEDIGDDSMKVKDEYSERDENVLKSEPMGNAEEPEIPYSYSREYNEYENIKLERHVVSFDSSRPTSGKMNCDVCGLSCISFNVLMVHKRSHTGERPFQCNQCGASFTQKGNLLRHIKLHTGEKPFKCHLCNYACQRRDALTGHLRTHSVEKPYKCEFCGRSYKQRSSLEEHKERCRTFLQSTDPGDTASAEARHIKAEMGSERALVLDRLASNVAKRKSSMPQKFIGEKRHCFDVNYNSSYMYEKESELIQTRMMDQAINNAISYLGAEALRPLVQTPPAPTSEMVPVISSMYPIALTRAEMSNGAPQELEKKSIHLPEKSVPSERGLSPNNSGHDSTDTDSNHEERQNHIYQQNHMVLSRARNGMPLLKEVPRSYELLKPPPICPRDSVKVINKEGEVMDVYRCDHCRVLFLDYVMFTIHMGCHGFRDPFECNMCGYRSHDRYEFSSHIARGEHRALLK
partner: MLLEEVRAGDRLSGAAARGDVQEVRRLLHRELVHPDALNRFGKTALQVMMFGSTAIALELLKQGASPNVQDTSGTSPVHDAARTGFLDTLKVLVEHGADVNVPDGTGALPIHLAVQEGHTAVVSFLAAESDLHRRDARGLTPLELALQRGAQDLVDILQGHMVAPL
B3: Peroxisomal membrane protein 11C (Homo sapiens), Q96HA9 (parent)
chain: MASLSGLASALESYRGRDRLIRVLGYCCQLVGGVLVEQCPARSEVGTRLLVVSTQLSHCRTILRLFDDLAMFVYTKQYGLGAQEEDAFVRCVSVLGNLADQLYYPCEHVAWAADARVLHVDSSRWWTLSTTLWALSLLLGVARSLWMLLKLRQRLRSPTAPFTSPLPRGKRRAMEAQMQSEALSLLSNLADLANAVHWLPRGVLWAGRFPPWLVGLMGTISSILSMYQAARAGGQAEATTP
partner: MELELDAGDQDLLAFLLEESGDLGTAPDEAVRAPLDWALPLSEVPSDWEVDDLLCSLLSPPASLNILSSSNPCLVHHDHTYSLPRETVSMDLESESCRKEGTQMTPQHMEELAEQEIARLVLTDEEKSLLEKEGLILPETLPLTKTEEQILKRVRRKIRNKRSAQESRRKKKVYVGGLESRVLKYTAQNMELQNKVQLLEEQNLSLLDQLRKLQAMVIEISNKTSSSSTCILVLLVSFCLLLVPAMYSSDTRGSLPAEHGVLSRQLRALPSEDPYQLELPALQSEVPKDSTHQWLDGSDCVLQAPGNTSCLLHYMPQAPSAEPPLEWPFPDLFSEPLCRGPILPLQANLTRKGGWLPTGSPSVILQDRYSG
B4: Nucleolar protein 12 (Homo sapiens), Q9UGY1 (parent)
chain: MGRNKKKKRDGDDRRPRLVLSFDEEKRREYLTGFHKRKVERKKAAIEEIKQRLKEEQRKLREERHQEYLKMLAEREEALEEADELDRLVTAKTESVQYDHPNHTVTVTTISDLDLSGARLLGLTPPEGGAGDRSEEEASSTEKPTKALPRKSRDPLLSQRISSLTASLHAHSRKKVKRKHPRRAQDSKKPPRAPRTSKAQRRRLTGKARHSGE

Variants of: B1
Details: with ews_human EWSR1, Q01844
Chain of ews_human EWSR1, Q01844 (Q01844 whole entry): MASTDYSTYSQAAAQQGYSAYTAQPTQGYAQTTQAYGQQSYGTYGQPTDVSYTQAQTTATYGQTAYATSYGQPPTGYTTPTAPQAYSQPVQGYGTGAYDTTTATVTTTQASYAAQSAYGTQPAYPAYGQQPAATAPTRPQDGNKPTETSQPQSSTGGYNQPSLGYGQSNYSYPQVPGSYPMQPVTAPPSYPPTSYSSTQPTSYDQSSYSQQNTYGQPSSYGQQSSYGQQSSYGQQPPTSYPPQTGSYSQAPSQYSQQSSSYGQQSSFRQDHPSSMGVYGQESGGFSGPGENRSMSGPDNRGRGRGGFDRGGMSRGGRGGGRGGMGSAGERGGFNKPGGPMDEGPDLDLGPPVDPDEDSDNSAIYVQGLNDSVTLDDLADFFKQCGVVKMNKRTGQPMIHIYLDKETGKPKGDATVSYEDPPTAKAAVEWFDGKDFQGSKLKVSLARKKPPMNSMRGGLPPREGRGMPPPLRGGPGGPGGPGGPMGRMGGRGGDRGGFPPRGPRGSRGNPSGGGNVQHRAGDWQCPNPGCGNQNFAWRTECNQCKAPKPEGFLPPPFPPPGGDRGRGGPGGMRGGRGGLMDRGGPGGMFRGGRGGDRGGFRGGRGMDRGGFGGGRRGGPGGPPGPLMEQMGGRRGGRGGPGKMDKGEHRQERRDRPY
D355N was tested, and the “effect of a mutation on the interaction” value was “with no effect”.
R531W was tested, and the “effect of a mutation on the interaction” value was “with no effect”.
With T174N the “effect of a mutation on the interaction” value was “with no effect”.
In the case of R189C, the “effect of a mutation on the interaction” value is reported as “with no effect”.
With V539G the “effect of a mutation on the interaction” value was “disrupting interaction strength”.

Variants of: B1
Details: with smad3_human SMAD3, P84022
Chain of smad3_human SMAD3, P84022 (P84022 whole entry, looked up): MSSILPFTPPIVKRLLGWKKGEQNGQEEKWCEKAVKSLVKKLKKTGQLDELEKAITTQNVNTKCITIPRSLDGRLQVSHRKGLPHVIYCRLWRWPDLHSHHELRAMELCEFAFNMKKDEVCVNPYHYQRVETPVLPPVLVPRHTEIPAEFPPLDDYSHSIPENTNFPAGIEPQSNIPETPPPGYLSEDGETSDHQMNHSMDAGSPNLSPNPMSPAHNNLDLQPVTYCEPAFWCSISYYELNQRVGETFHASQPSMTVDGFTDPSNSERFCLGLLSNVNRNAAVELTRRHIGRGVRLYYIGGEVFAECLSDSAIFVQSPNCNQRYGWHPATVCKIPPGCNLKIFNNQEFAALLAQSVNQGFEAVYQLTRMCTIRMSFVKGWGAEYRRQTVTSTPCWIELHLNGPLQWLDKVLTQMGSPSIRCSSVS
D355N was tested, and the “effect of a mutation on the interaction” value was “disrupting interaction strength”.
For V407L, the “effect of a mutation on the interaction” value was “with no effect”.
In the case of R531W, the “effect of a mutation on the interaction” value is reported as “disrupting interaction strength”.
Y353S was tested, and the “effect of a mutation on the interaction” value was “disrupting interaction strength”.
T174N was tested, and the “effect of a mutation on the interaction” value was “with no effect”.
In the case of R189C, the “effect of a mutation on the interaction” value is reported as “with no effect”.
In the case of V539G, the “effect of a mutation on the interaction” value is reported as “disrupting interaction strength”.

Variants of: B1
Details: with smad9_human SMAD9, O15198
Chain of smad9_human SMAD9, O15198 (O15198 whole entry): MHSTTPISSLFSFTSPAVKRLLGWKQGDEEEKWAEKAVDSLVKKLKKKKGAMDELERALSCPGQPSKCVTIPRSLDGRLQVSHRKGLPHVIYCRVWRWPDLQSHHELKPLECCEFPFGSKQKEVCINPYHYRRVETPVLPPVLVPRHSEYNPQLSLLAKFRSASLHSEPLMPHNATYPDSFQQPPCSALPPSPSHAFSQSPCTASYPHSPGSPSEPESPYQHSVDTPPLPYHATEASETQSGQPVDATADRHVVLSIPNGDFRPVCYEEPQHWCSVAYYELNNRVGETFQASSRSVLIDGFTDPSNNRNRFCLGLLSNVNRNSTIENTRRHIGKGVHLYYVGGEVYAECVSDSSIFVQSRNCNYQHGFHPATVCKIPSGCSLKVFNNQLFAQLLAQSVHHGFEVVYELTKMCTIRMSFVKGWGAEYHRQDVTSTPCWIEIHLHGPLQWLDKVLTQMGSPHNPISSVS
With Y353S the “effect of a mutation on the interaction” value was “disrupting interaction strength”.

Variants of: B2
Details: with cdn2d_human CDKN2D
A24V was tested, and the “effect of a mutation on the interaction” value was “with no effect”.
In the case of N119D, the “effect of a mutation on the interaction” value is reported as “with no effect”.

Variants of: B2
Details: with cdn2d_human CDKN2D
Remark: another data set of the same source
With I338M the “effect of a mutation on the interaction” value was “with no effect”.

Variants of: B3
Details: with creb3_human CREB3, O43889
MASLSGLASALESYRGRDRLIRVLGYCCQLVGGVLVEQCPARSEVGTRLLVVSTQLSHCRTILRLFDDLAMFVYTKQYGLGAQEEDAFVRWVSVLGNLADQLYYPCEHVAWAADARVLHVDSSRWWTLSTTLWALSLLLGVARSLWMLLKLRQRLRSPTAPFTSPLPRGKRRAMEAQMQSEALSLLSNLADLANAVHWLPRGVLWAGRFPPWLVGLMGTISSILSMYQAARAGGQAEATTP [C91W] was tested, and the “effect of a mutation on the interaction” value was “with no effect”.

Variants of: B4
Details: with cep70_human CEP70, Q8NHQ1
Chain of cep70_human CEP70, Q8NHQ1 (Q8NHQ1 whole entry): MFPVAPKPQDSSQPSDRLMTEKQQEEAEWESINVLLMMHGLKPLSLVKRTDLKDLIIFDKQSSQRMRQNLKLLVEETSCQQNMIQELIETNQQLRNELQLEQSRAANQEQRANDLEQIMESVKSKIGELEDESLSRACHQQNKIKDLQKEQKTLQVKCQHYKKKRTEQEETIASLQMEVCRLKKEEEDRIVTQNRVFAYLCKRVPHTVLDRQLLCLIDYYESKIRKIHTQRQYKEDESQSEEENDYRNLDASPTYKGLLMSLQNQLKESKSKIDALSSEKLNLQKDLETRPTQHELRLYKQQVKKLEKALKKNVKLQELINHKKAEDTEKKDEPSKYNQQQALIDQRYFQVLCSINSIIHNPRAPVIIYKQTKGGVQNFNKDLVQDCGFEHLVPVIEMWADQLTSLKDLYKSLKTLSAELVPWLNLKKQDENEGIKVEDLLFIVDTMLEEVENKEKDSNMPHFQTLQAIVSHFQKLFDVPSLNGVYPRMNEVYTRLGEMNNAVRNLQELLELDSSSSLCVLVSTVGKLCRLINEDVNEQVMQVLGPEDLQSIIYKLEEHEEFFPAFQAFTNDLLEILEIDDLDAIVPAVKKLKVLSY
With MGRNKKKKRDGDDRRPRLVLSFDEEKRREYLTGFHKRKVERKKAAIEEIKQRLKEEQRKLREERHQEYLKMLAEREEALEEADELDRLVTAKTESVQHDHPNHTVTVTTISDLDLSGARLLGLTPPEGGAGDRSEEEASSTEKPTKALPRKSRDPLLSQRISSLTASLHAHSRKKVKRKHPRRAQDSKKPPRAPRTSKAQRRRLTGKARHSGE [Y98H] the “effect of a mutation on the interaction” value was “with no effect”.
